Assay [1] concerns human umbilical cord venous endothelial cells (HUVEC). The experiment in a line: Reversal of MBG inhibition of HUVEC cell proliferation (3H-thymidine). The assay is classed as cell-based. As to conditions: MBG 2 nM, antibody 2.5-10 μg/mL, 48 hr; FIG. 3b. The method, then: MBG (2 nM) was incubated with an antibody (20 μg/mL in FIG. 3a with human anti-MBG mAbs, or varying concentrations (2.5-10 μg/mL) in FIG. 3b with humanized anti-MBG mAbs) prior to addition to cultured human umbilical cord venous endothelial cells (HUVEC). After 48 hr, DNA synthesis was assessed by incorporation of ^3H-thymidine.
HUVEC cells in endothelial cell growth medium were plated onto 96-well plates. The next day, the cells were pretreated with various antibodies (2.5-20 μg/mL) and then incubated with 2 nM MBG for 48 hr. [^3H]-Thymidine was added to each well. [^3H]-Thymidine-labeled DNA was assayed by harvesting the cells and assaying for ^3H using a PerkinElmer Wallac Tailux liquid scintillation counter. […] Means were tested for significance using Student's t-test.

A short description of assay [2]: Competitive ELISA, relative CTS specificity, free MBG as competitor. It is filed as binding. Particulars: competition with immobilized MBG-BSA; normalized to MBG = 100%. The method, then:
(§1) The specificity (relative affinity) of anti-MBG antibodies for MBG relative to various cardiotonic steroids (CTSs) was determined in a competitive ELISA. Each anti-MBG antibody was tested for its binding to immobilized MBG in the presence of free MBG, resibufogenin (RBG), cinobufagin (CINO), ouabain (OUB) or digoxin (DIG) as a competitor. A constant amount of an anti-MBG antibody (typically 1-5 μg/mL) and varying concentrations of each CTS (from 10^−12M to 10^−5M) were pre-incubated before being added to the MBG-BSA-coated wells. After washing of the wells, an anti-human Fc, HRP-conjugated secondary antibody (at 1:5000 dilution) was added to the wells and incubated at 37° C. for 1 hr. After washing of the wells, an appropriate HRP reagent (e.g., TMB ultra, Thermo Fisher) was added to the wells. OD at 450 nm was measured by a microplate reader. MBG at 10 μM was assumed to be 100% competed, and MBG at 1 pM was assumed to be 0% competed. The data was plotted as a titration of antibody-antigen binding relative to free CTS concentration in the competition reaction to determine the free CTS concentration (μM) giving 50% maximal binding of antibody to immobilized MBG. The relative specificity of an antibody for a CTS was normalized to MBG=100%.

Assay [3] in a line: Competitive ELISA, relative CTS specificity, CINO as competitor. The assay is classed as binding. Particulars: competition with immobilized MBG-BSA; normalized to MBG = 100%. The method, then: as §1
On the technique in general: In an ELISA, binding on a coated surface is turned into a signal by an enzyme label.

A short description of assay [4]: Competitive ELISA, relative CTS specificity, RBG as competitor. It is filed as binding. Particulars: competition with immobilized MBG-BSA; normalized to MBG = 100%. As for the experimental part:
as §1

A short description of assay [5]: Competitive ELISA, relative CTS specificity, DIG as competitor. Particulars: competition with immobilized MBG-BSA; normalized to MBG = 100%. The assay is classed as binding. As for the experimental part:
as §1

Assay [6] in a line: Competitive ELISA, free CTS competitors overall (summary and footnote). The assay is classed as binding. Particulars: competitors RBG, CINO, OUB, DIG; Table 2. The method, then:
as §1

B1: H3L2: humanized anti-MBG antibody, VH H3 (SEQ ID NO: 11) with VL L2 (SEQ ID NO: 13) (antibody, V domains shown)
VH: EVQLQESGPGLVKPSETLSLTCTVSGDSITSGYWNWIRQPPGKGLEYMGYISYSGTTYYNPSLKSRITISRDTSKNQYSLKLSSVTAADTAVYYCARARYGYGFDYWGQGTLVTVSS
VL: DVVMTQSPLSLPVTLGQPASISCRSSQSIVHSNRNTYLEWYQQRPGQSPRLLIYKVSNRFSGVPDRFSGSGSGTDFTLKISRVEAEDVGVYYCFQGSHVPLTFGGGTKVEIK
modifications: Humanized VH sequence; Humanized VL sequence
As to B1, the “MBG inhibition of HUVEC cell proliferation, humanized mAbs” value in assay [1] is “significantly reduced”. The “Rel. CTS Specificity as % of MBG Binding: MBG” value in assay [2] is 100%. In addition, the “Rel. CTS Specificity as % of MBG Binding: CINO” value in assay [3] was 0%. In addition, the “Rel. CTS Specificity as % of MBG Binding: RBG” value in assay [4] stood at 0%. Besides, the “Rel. CTS Specificity as % of MBG Binding: DIG” value in assay [5] was 0%. Also, the “reaction with CTS competitor molecules” value in assay [6] is “did not react with any of the CTS competitor molecules”.

The values above are taken from patent US10654925B2, “Anti-marinobufagenin antibodies and uses thereof” (priority 2018, dated 2020).
